Laboratory results: PMC4943861 (ACS chemical biology, 2015)

Legend:
Abl3D = Abl3D (UniProt P00519 38-512); experiment: cell-based or functional assay
Fyn = Fyn (human (endogenous in K562), UniProt P06241 1-537); experiment: cell-based or functional assay
Chain of Fyn (P06241 whole entry): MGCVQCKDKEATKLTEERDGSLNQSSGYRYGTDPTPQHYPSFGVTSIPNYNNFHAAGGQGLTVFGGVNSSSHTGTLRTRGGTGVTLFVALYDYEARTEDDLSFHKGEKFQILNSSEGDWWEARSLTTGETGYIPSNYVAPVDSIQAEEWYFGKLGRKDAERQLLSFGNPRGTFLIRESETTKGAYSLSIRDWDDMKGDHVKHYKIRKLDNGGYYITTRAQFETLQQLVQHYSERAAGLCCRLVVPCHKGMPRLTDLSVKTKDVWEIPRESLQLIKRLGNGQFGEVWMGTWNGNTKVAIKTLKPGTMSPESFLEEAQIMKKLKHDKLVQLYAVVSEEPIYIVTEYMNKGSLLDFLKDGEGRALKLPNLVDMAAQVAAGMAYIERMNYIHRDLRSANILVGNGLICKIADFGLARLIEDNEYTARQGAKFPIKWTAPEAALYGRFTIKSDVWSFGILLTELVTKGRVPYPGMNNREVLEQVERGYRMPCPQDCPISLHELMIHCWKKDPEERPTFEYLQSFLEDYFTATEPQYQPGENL

Chain of Abl3D (P00519 38-512): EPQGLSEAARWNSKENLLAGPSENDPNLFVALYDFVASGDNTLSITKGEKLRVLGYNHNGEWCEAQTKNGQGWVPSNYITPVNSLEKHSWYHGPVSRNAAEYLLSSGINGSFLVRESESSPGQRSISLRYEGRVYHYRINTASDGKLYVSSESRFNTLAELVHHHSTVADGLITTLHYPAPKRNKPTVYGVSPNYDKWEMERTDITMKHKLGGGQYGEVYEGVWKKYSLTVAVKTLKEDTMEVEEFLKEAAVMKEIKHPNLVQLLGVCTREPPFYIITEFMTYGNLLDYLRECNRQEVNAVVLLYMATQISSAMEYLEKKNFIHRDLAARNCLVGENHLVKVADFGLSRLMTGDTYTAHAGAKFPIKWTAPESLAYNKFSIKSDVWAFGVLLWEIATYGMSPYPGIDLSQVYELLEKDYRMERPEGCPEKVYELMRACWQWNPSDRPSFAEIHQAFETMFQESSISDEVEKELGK

B1: SNAP(HA4)-4 (designed binder)
chain: DKDCEMKRTTLDSPLGKLELSGCEQGLHEIIFLGKGTSAADAVEVPAPAAVLGGPEPLMQATAWLNAYFHQPEAIEEFPVPALHHPVFQQESFTRQVLWKLLKVVKFGEVISYSHLAALAGNPAATAAVKTALSGNPVPILIPCHRVVQGDLDVGGYEGGLAVKEWLLAHEGHRLGKVSSVPTKLEVVAATPTSLLISWDAPMSSSSVYYYRITYGETGGNSPVQEFTVPYSSSTATISGLSPGVDYTITVYAWGEDSAGYMFMYSPISINYRT
modifications: compound 4 (O6-benzylguanine derivative of the pan-kinase inhibitor 2) covalently conjugated to SNAPtag
- IC50, in vitro kinase activity assay of Abl3D (Abl3D): 8.3 nM
- IC50 of kinase activity of purified FYN, relative to monovalent 4 (Fyn): 8 fold more potent than 4
